Results published in the RNAGym collection of RNA variant scans (doi:10.1073/pnas.2313332121).
This sample holds only a part of the variants without activity.

B1: TPR 5TU (parent)
chain: GGAUCUUCUCGAUCUAACAAAAAAGACAAAUCUGCCACAAAGCUUGAGAGCAUCUUCGGAUGCAGAGGCGGCAGCCUUCGGUGGCGCGAUAGCGCCAACGUUCUCAACUAUGACACGCAAAACGCGUGCUCCGUUGAAUGGAGUUUAUCAUG

Variants of: B1
Assay: polymerase ribozyme fitness, log enrichment relative to wild type (log ratio); higher = more active; in vitro selection for triplet polymerase activity
Procedure, shortened: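 Mutant libraries of both subunits of a heterodimeric triplet polymerase ribozyme were PCR-built, transcribed, and selected once in triplicate, with frozen incubation at −7 °C and capture of gel-excised extended constructs on streptavidin beads before RT-PCR. Illumina sequencing of input and output libraries was filtered to genotypes with ≥10 input reads and ≥1 read per output. Fitness is the logarithm of genotype enrichment over wild-type enrichment, using inverse-variance-weighted replicate averages. The logarithm is base 2.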

Going from GGAUCUUCUCGAUCUAACAAAAAAGACAAAUCUGCCACAAAGCUUGAGAGCAUCUUCGGAUGCAGAGGCGGCAGCCUUCGGUGACGCGAUAGCGCCAACGUGCUCAACUAUGACACGCAAAUCGCGUGCUCCGUUGAAUGGAGUUUAUCAUG [G84A U102G A122U] to GGAUCUUCUCGAUCUAACAAAAAAGACAAAUCUGCCACAAAGCUUGAGAGCAUCUUCGGAUGCAGAGGCGGCAGCCUUCGGUGACGCGAUAGCGCCAACGUUCUCAACUAUGACACGCUAAACGCGUGCUCCGUUGAAUGGAGUUUAUCAUG [G84A A119U], the “polymerase ribozyme fitness (log ratio)” value rises from -2.74 to -0.787.

Going from GGAUCUUCUCGAUCUAACAAAAAAGACAAAUCUGCCACAAAGCUUGAGAGCAUCUUCGGAUGCAGAGGCGGCAGCCUUCGGUGCCGCGAUAGCGCCAACGUUCUCAACUAUGACACGCAAAACGCGUGCUCCGGUGAAUGGAGUUUAUCAUG [G84C U134G] to GGAUCUUCUCGAUCUAACAAAAAAGACAAAUCUGCCACAAAGCUUGAGAGCAUCUUCGGAUGCAGAGGCGGCAGCCUUCGGUGUCGCGAUAGCGCCAACGUUCUCAACUAUGACACGCAAAACGCGUGCUCCGUUGAAUGGAGUUUAUCAUG [G84U], the “polymerase ribozyme fitness (log ratio)” value rises from no more than -4.2 to -1.91.

First: GGAUCUUCUCGAUCUAACAAAAAAGACAAAUCUGCCACAAAGCUUGAGAGCAUCUUCGGAUGCAGAGGCGGCAGCCUUCGGUGCCGCGAUAGCGCCAACGUUCUCAACUAUGACACGCAAAACGCGUGCUCCGUUGAAUGGAGUUUAUCAUG [G84C]
Second: GGAUCUUCUCGAUCUAACAAAAAAGACAAAUCUGCCACAAAGCUUGAGAGCAUCUUCGGAUGCAGAGGCGGCAGCCUUCGGUGACGCGAUAGCGCCAACGUUCUCAACUAUGACACGCAAAACGCGUGCUCCGUUGAAGGGAGUUUAUCAUG [G84A U139G]
The “polymerase ribozyme fitness (log ratio)” value of the first is lower: -1.76 for the first, -0.68 for the second.

Going from GGAUCUUCUCGAUCUAACAAAAAAGACAAAUCUGCCACAAAGCUUGAGAGCAUCUUCGGAUGCAGAGGCGGCAGCCUUCGGUGACUCGAUAGCGACAAUGAUCUCAACUAUGACACGCAAAAGGCGUGCUCCGUUGAAUGGAGUUUAUCAUG [G84A G86U C95A C99U U101A C123G] to GGAUCUUCUCGAUCUAACAAAAAAGACAAAUCUGCCACAAAGCUUGAGAGCAUCUUCGGAUGCAGAGGCGGCAGCCUUCGGUGCCGCGAUAGCACCAACGUUCUCAACUAUGACACGCAAAACGCGUGCUCCGUUGAAUGGAGUUUAUCAUG [G84C G94A], the “polymerase ribozyme fitness (log ratio)” value rises from no more than -4.2 to -4.07.

Going from GGAUCUUCUCGAUCUAACAAAAAAGACAAAUCUGCCACAAAGCUUGAGAGCAUCUUCGGAUGCAGAGGCGGCAGCCUUCGGUGACGCGAUAGCGCCAACGUUCUCAACUAUGACACGCAAAACGCGCGCUCCGUUGAAUGGAGUUUAUCAUG [G84A U127C] to GGAUCUUCUCGAUCUAACAAAAAAGACAAAUCUGCCACAAAGCUUGAGAGCAUCUUCGGAUGCAGAGGCGGCAGCCUUCGGUGACGCGAAAGCGCCAACGUUCUCAACUAUGACACGCAAUACGCGUGCUCCGUUGAAUGGAGUUUAUCAUG [G84A U90A A121U], the “polymerase ribozyme fitness (log ratio)” value falls from -1.91 to no more than -4.2.

First: GGAUCUUCUCGAUCUAACAAAAAAGACAAAUCUGCCACAAAGCUUGAGAGCAUCUUCGGAUGCAGAGGCGGCAGCCUUCGGUGACGCGAUAGCGCCUACGUUCUCAACUAUGACACGCAAAACGCGUGCUCCGAUGAAUGGAGUUUAUCAUG [G84A A97U U134A]
Second: GGAUCUUCUCGAUCUAACAAAAAAGACAAAUCUGCCACAAAGCUUGAGAGCAUCUUCGGAUGCAGAGGCGGCAGCCUUCGGUGACGCGAUUGCGCCAACGUGCUCAACUAUGACACGCAAAACGCGUGCUCCGUUGAAUGGAGAUUAUCAUG [G84A A91U U102G U144A]
The “polymerase ribozyme fitness (log ratio)” value of the first is higher: -3.23 for the first, no more than -4.2 for the second.

Going from GGAUCUUCUCGAUCUAACAAAAAAGACAAAUCUGCCACAAAGCUUGAGAGCAUCUUCGGAUGCAGAGGCGGCAGCCUUCGGUGACGCGAUAGCGCCAACGUUCUCAACUAUGUCACGCAAAACGCGUGCUCCGUUGAAUAGAGUUUAUCAUG [G84A A113U G140A] to GGAUCUUCUCGAUCUAACAAAAAAGACAAAUCUGCCACAAAGCUUGAGAGCAUCUUCGGAUGCAGAGGCGGCAGCCUUCGGUGACGCGAUAGCGCCAACGUUCUCAACUAUGACACGCAAAACGCGUGCUCCGUUUAAUGGAGUUUAUCAUG [G84A G136U], the “polymerase ribozyme fitness (log ratio)” value rises from no more than -4.2 to -2.81.

Going from GGAUCUUCUCGAUCUAACAAAAAAGACAAAUCUGCCACAAAGCUUGAGAGCAUCUUCGGAUGCAGAGGCGGCAGCCUUCGGUGACGCGAUAGCGCCAACGUUCUCAACUAUGACUCGCAAAACGCAUGCUCCGUUGAAUGGAGUUUAUCAUG [G84A A115U G126A] to GGAUCUUCUCGAUCUAACAAAAAAGACAAAUCUGCCACAAAGCUUGAGAGCAUCUUCGGAUGCAGAGGCGGCAGCCUUCGGUGACGCGAUAGCGCCAACGUUCUCAACUAUGACACGCAAAACGCGUUCUCCGUUGAAUGGAGUUUAUCAUG [G84A G128U], the “polymerase ribozyme fitness (log ratio)” value rises from -4.17 to -3.84.

First: GGAUCUUCUCGAUCUAACAAAAAAGACAAAUCUGCCACAAAGCUUGAGAGCAUCUUCGGAUGCAGAGGCGGCAGCCUUCGGUGACGCGAUAGCGCCAACAUUCUCGACUAUGUCACUCAAAAUGCGUGCUCCGUUGAAUGGCGUUUAUCAUG [G84A G100A A106G A113U G117U C123U A142C]
Second: GGAUCUUCUCGAUCUAACAAAAAAGACAAAUCUGCCACAAAGCUUGAGAGCAUCUUCGGAUGCAGAGGCGGCAGCCUUCGGUGACGCGAUAGCGCCAACGUUCUCAACUAUGACACGCAACACGCGGGCUCCGUUGAAUGGAGUUUAUCAUG [G84A A121C U127G]
The “polymerase ribozyme fitness (log ratio)” value of the first is lower: no more than -4.2 for the first, -2.56 for the second.

For GGAUCUUCUCGAUCUAACAAAAAAGACAAAUCUGCCACAAAGCUUGAGAGCAUCUUCGGAUGCAGAGGCGGCAGCCUUCGGUGACGCGAUAGCGCCAGCGUUCUCAACUAUGACACGCAAAACGCGUGCUCCGUUGAAUGGAGUUUAUCAUG [G84A A98G], the “polymerase ribozyme fitness (log ratio)” value was -2.7.
